{"source": "patent US5824529", "key": {"[1]": {"tested_on": "PshAI restriction endonuclease (native) (Plesiomonas shigelloides)", "assay": "cleavage_in_vitro", "settings": "total activity in Mono Q peak, assayed on lambda DNA"}, "[2]": {"tested_on": "PshAI restriction endonuclease (recombinant, pPshAIR1, NEB#984) (Plesiomonas shigelloides)", "assay": "cleavage_in_vitro", "settings": "crude extract, NEBuffer 2, 30 C, 30 min"}}}
{"substance": "lambda DNA", "values": [{"measurement": "activity", "setting": "[1]", "result": 250000, "unit": "units"}, {"measurement": "activity (units/g cells)", "setting": "[2]", "result": "1e+07"}]}
